Reference: PMC5379953 (The Journal of Cell Biology, 2017)
Numbering of substitutions follows the chain as printed. Names may count otherwise.

B1: human Spindly^2–359::Strep-tag II (N-terminal coiled-coil region) (domain or fragment, UniProt Q96EA4 2-359, looked up)
chain: EADIITNLRCRLKEAEEERLKAAQYGLQLVESQNELQNQLDKCRNEMMTMTESYEQEKYTLQREVELKSRMLESLSCECEAIKQQQKMHLEKLEEQLSRSHGQEVNELKTKIEKLKVELDEARLSEKQLKHQVDHQKELLSCKSEELRVMSERVQESMSSEMLALQIELTEMESMKTTLKEEVNELQYRQEQLELLITNLMRQVDRLKEEKEEREKEAVSYYNALEKARVANQDLQVQLDQALQQALDPNSKGNSLFAEVEDRRAAMERQLISMKVKYQSLKKQNVFNREQMQRMKLQIATLLQMKGSQTEFEQQERLLAMLEQKNGEIKHLLGEIRNLEKFKNLYDSMESKPSVDSG
B2: human Spindly^2–359 F258A::Strep-tag II (domain or fragment, UniProt Q96EA4 2-359, looked up)
chain: B1 chain with F257A
B3: GST::LIC1::6×His C-terminal region (residues 388–523) (domain or fragment, human, UniProt Q9Y6G9 388-523, looked up)
chain: PTAAGRPVDASPRVPGGSPRTPNRSVSSNVASVSPIPAGSKKIDPNMKAGATSEGVLANFFNSLLSKKTGSPGGPGVSGGSPAGGAGGGSSGLPPSTKKSGQKPVLDVHAELDRITRKPVTVSPTTPTSPTEGEAS
B4: human BICD2^2–422::Strep-tag II (domain or fragment, UniProt Q8TD16 2-422, looked up)
chain: SAPSEEEEYARLVMEAQPEWLRAEVKRLSHELAETTREKIQAAEYGLAVLEEKHQLKLQFEELEVDYEAIRSEMEQLKEAFGQAHTNHKKVAADGESREESLIQESASKEQYYVRKVLELQTELKQLRNVLTNTQSENERLASVAQELKEINQNVEIQRGRLRDDIKEYKFREARLLQDYSELEEENISLQKQVSVLRQNQVEFEGLKHEIKRLEEETEYLNSQLEDAIRLKEISERQLEEALETLKTEREQKNSLRKELSHYMSINDSFYTSHLHVSLDGLKFSDDAAEPNNDAEALVNGFEHGGLAKLPLDNKTSTPKKEGLAPPSPSLVSDLLSELNISEIQKLKQQLMQMEREKAGLLATLQDTQKQLEHTRGSLSEQQEKVTRLTENLSALRRLQASKERQTALDNEKDRDSHEDG

Experiments:
[1] = molecular target: GST::LIC1::6×His, full-length dynein light intermediate chain 1 (residues 1–523) (human, UniProt Q9Y6G9 1-523); assay: pull-down
[2] = molecular target: B1; assay: pull-down

binding result [1] | binding result [2] | Binder
binds | – | B1
binds | – | B2
– | binds | B3
binds | – | B4
